The text below walks through data of patent publication US20040086502A1 (Genentech, published 2004).

Experiment [1] concerns the target T1, VEGF(8-109) (UniProt P15692 214-315).
T1 construct: range 8-109; Covalently coupled to the BIACORE chip (EDC/NHS); also called vascular endothelial growth factor
T1 sequence (looked up): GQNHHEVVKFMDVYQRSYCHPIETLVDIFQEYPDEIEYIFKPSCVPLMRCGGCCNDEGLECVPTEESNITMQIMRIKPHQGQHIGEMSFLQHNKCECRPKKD
Description: SPR (BIACORE-2000); reference (wt) is Y0192. The procedure: (§1) BIACORE™ Analysis: The VEGF-binding affinities of Fab fragments were calculated from association and dissociation rate constants measured using a BIACORE™-2000 surface plasmon resonance system (BIACORE™, Inc., Piscataway, N.J.). A biosensor chip was activated for covalent coupling of VEGF using N-ethyl-N′-(3-dimethylaminopropyl)-carbodiimide hydrochloride (EDC) and N-hydroxysuccinimide (NHS) according to the supplier's (BIACORE™, Inc., Piscataway, N.J.) instructions. VEGF(8-109) was buffered exchanged into 20 mM sodium acetate, pH 4.8 and diluted to approximately 50 μg/mL. Aliquots of VEGF were injected at a flow rate of 2 μL/min to achieve approximately 700-1400 response units (RU) of coupled protein. A solution of 1 M ethanolamine was injected as a blocking agent.
(§2) For kinetics measurements, two-fold serial dilutions of Fab were injected in PBS/TWEEN buffer (0.05% TWEEN 20™ in phosphate buffered saline) at 25° C. at a flow rate of 10 μL/min. Equilibrium dissociation constants, Kd's from SPR measurements were calculated as koff/kon (Table 17).

In experiment [2] the target is T1, VEGF(8-109). The experiment is described as follows: SPR (BIACORE-2000), Fab injected over immobilised VEGF(8-109), 25 C. The procedure: as §1, §2
For experiment [3], the target named is T1, VEGF(8-109). The experiment is described as follows: SPR (BIACORE-2000), Kd calculated as koff/kon. The procedure:
as §1, §2

Experiment [4] concerns the target T2, VEGF (recombinant; version 1-165) (UniProt P15692 27-191). Description: cell-based or functional assay.
Experiment [5] deals with T2, VEGF (recombinant; version 1-165). The experiment is described as follows: cell-based or functional assay. This is another data set of the same source.

T2 sequence (P15692 other isoform, or with tags, fused parts or gaps limits assumed): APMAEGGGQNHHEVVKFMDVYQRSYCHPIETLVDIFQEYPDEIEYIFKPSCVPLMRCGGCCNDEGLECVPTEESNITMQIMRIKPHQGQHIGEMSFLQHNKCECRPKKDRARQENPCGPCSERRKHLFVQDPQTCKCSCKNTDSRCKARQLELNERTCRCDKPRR

B1: Y0239-19 Fab (Fab, V domains shown)
VH: EVQLVESGGGLVQPGGSLRLSCAASGYTFTNYGMNWVRQAPGKGLEWVGWINTYTGEPTYAADFKRRFTFSLDTSKSTAYLQMNSLRAEDTAVYYCAKYPHYYVNERKSHWYFDVWGQGTL
VL: DIQLTQSPSSLSASVGDRVTITCRANEQLSNYLNWYQQKPGKAPKVLIYFTSSLHSGVPSRFSGSGSGTDFTLTISSLQPEDFATYYCQQYSTVPWTFGQGTKVEIKR
notes: also called insertion variant with the VNERK motif
Turning to B1, the “Kd(wt)/Kd(mut)” value with VEGF(8-109) [1] came to 9.7 ratio. Moreover, in the experiment with VEGF(8-109) [2], the koff is no more than 1e-05 s⁻¹ and the kon came out at 36000 M⁻¹ s⁻¹. For the same molecule, the Kd with VEGF(8-109) [3] was no more than 0.3 nM.

B2: Y0239-8 Fab (Fab, V domains shown)
VH: EVQLVESGGGLVQPGGSLRLSCAASGYTFTNYGMNWVRQAPGKGLEWVGWINTYTGEPTYAADFKRRFTFSLDTSKSTAYLQMNSLRAEDTAVYYCAKYPHYYLRDGRSSHWYFDVWGQGTL
VL: DIQLTQSPSSLSASVGDRVTITCRANEQLSNYLNWYQQKPGKAPKVLIYFTSSLHSGVPSRFSGSGSGTDFTLTISSLQPEDFATYYCQQYSTVPWTFGQGTKVEIKR
As for B2, in the experiment with VEGF(8-109) [1], the “Kd(wt)/Kd(mut)” value was 5.8 ratio. Moreover, in the experiment with VEGF(8-109) [2], the off-rate constant (koff) came to 1.8e-05 s⁻¹ and the on-rate (kon) was 38000 M⁻¹ s⁻¹. In addition, the Kd with VEGF(8-109) [3] was 0.5 nM.

B3: Y0239-9 Fab (Fab, V domains shown)
VH: EVQLVESGGGLVQPGGSLRLSCAASGYTFTNYGMNWVRQAPGKGLEWVGWINTYTGEPTYAADFKRRFTFSLDTSKSTAYLQMNSLRAEDTAVYYCAKYPHYYLGESSHWYFDVWGQGTL
VL: DIQLTQSPSSLSASVGDRVTITCRANEQLSNYLNWYQQKPGKAPKVLIYFTSSLHSGVPSRFSGSGSGTDFTLTISSLQPEDFATYYCQQYSTVPWTFGQGTKVEIKR
notes: Only three residues stand in place of G104, although the library was designed with four or five
On to B3, for which, in the experiment with VEGF(8-109) [1], the “Kd(wt)/Kd(mut)” value came out at 6 ratio. Besides, in the experiment with VEGF(8-109) [2], the koff is 1.9e-05 s⁻¹ and the kon stood at 39700 M⁻¹ s⁻¹. Also, the Kd with VEGF(8-109) [3] was 0.5 nM.

B4: Y0239-12 Fab (Fab, V domains shown)
VH: EVQLVESGGGLVQPGGSLRLSCAASGYTFTNYGMNWVRQAPGKGLEWVGWINTYTGEPTYAADFKRRFTFSLDTSKSTAYLQMNSLRAEDTAVYYCAKYPHYYAHEKKSHWYFDVWGQGTL
VL: DIQLTQSPSSLSASVGDRVTITCRANEQLSNYLNWYQQKPGKAPKVLIYFTSSLHSGVPSRFSGSGSGTDFTLTISSLQPEDFATYYCQQYSTVPWTFGQGTKVEIKR
On to B4, for which the “Kd(wt)/Kd(mut)” value in the experiment with VEGF(8-109) [1] was found to be 4.8 ratio. Moreover, in the experiment with VEGF(8-109) [2], the off-rate constant (koff) came to 3.4e-05 s⁻¹ and the kon was 57000 M⁻¹ s⁻¹. Further, the equilibrium dissociation constant (Kd) with VEGF(8-109) [3] is 0.6 nM.

B5: Y0242-1 Fab (Fab, V domains shown)
VH: EVQLVESGGGLVQPGGSLRLSCAASGYTFTNYGMNWVRQAPGKGLEWVGWINTWTGEPTYAADFKRRFTFSLDTSKSTAYLQMNSLRAEDTAVYYCAKYPHYYGSSHWYFDVWGQGTL
VL: DIQLTQSPSSLSASVGDRVTITCRANEQLSNYLNWYQQKPGKAPKVLIYFTSSLHSGVPSRFSGSGSGTDFTLTISSLQPEDFATYYCQQYSTVPWTFGQGTKVEIKR
notes: Clone from library YC-90, made on the Y0192 template; also called point mutant Y54W
Regarding B5, the “Kd(wt)/Kd(mut)” value with VEGF(8-109) [1] stood at 1.6 ratio. In addition, in the experiment with VEGF(8-109) [2], the koff came to 8.6e-05 s⁻¹ and the on-rate constant (kon) worked out at 47000 M⁻¹ s⁻¹. Moreover, the Kd in the experiment with VEGF(8-109) [3] is 1.8 nM.

B6: Y0239-2 Fab (Fab, V domains shown)
VH: EVQLVESGGGLVQPGGSLRLSCAASGYTFTNYGMNWVRQAPGKGLEWVGWINTYTGEPTYAADFKRRFTFSLDTSKSTAYLQMNSLRAEDTAVYYCAKYPHYYKNDKSSHWYFDVWGQGTL
VL: DIQLTQSPSSLSASVGDRVTITCRANEQLSNYLNWYQQKPGKAPKVLIYFTSSLHSGVPSRFSGSGSGTDFTLTISSLQPEDFATYYCQQYSTVPWTFGQGTKVEIKR
In the case of B6, in the experiment with VEGF(8-109) [1], the “Kd(wt)/Kd(mut)” value came to 0.6 ratio. Moreover, in the experiment with VEGF(8-109) [2], the off-rate (koff) came out at 0.000164 s⁻¹ and the kon amounted to 36000 M⁻¹ s⁻¹. Besides, the dissociation constant (Kd) with VEGF(8-109) [3] is 4.6 nM.

B7: Y0261-6 Fab (Fab, V domains shown)
VH: EVQLVESGGGLVQPGGSLRLSCAASGYTFTNYGMNWVRQAPGKGLEWVGWINTYTGEPTYAADFKRRFTFSLDTSKSTAYLQMNSLRAEDTAVYYCAKYPHYYLKDKKSHWYFDVWGQGTL
VL: DIQLTQSPSSLSASVGDRVTITCRANEQLSNYLNWYQQKPGKAPKVLIYFTSSLHSGVPSRFSGSGSGTDFTLTISSLQPEDFATYYCQQYSTVPWTFGQGTKVEIKR
Turning to B7, the “Kd(wt)/Kd(mut)” value in the experiment with VEGF(8-109) [1] was 5 ratio. In the experiment with VEGF(8-109) [2], this molecule showed a koff of 2.5e-05 s⁻¹ and an association rate constant (kon) of 44000 M⁻¹ s⁻¹. For the same molecule, the dissociation constant (Kd) with VEGF(8-109) [3] was 0.6 nM.

B8: Y0240-1 Fab (Fab, V domains shown)
VH: EVQLVESGGGLVQPGGSLRLSCAASGYTFTNYGMNWVRQAPGKGLEWVGWINTYTGEPTYAADFKRRFTFSLDTSKSTAYLQMNSLRAEDTAVYYCAKYPHYYLTDHKSHWYFDVWGQGTL
VL: DIQLTQSPSSLSASVGDRVTITCRANEQLSNYLNWYQQKPGKAPKVLIYFTSSLHSGVPSRFSGSGSGTDFTLTISSLQPEDFATYYCQQYSTVPWTFGQGTKVEIKR
As to B8, the “Kd(wt)/Kd(mut)” value with VEGF(8-109) [1] came out at 5.8 ratio. In addition, in the experiment with VEGF(8-109) [2], the koff is 1.3e-05 s⁻¹ and the on-rate constant (kon) is 25000 M⁻¹ s⁻¹. In the experiment with VEGF(8-109) [3], the dissociation constant Kd was 0.5 nM.

B9: Y0313-2 Fab (Fab, V domains shown)
VH: EVQLVESGGGLVQPGGSLRLSCAASGYDFTHYGMNWVRQAPGKGLEWVGWINTYTGEPTYAADFKRRFTFSLDTSKSTAYLQMNSLRAEDTAVYYCAKYPHYYVNERKSHWYFDVWGQGTL
VL: DIQLTQSPSSLSASVGDRVTITCRANEQLSNYLNWYQQKPGKAPKVLIYFTSSLHSGVPSRFSGSGSGTDFTLTISSLQPEDFATYYCQQYSTVPWTFGQGTKVEIKR
notes: Combines the CDR H3 insertion of Y0239-19 (VNERK) with T28D/N31H; also called CDR combination variant Y0313-2; Insert-Fab Y0313-2
As to B9, the “Kd(wt)/Kd(mut)” value with VEGF(8-109) [1] came to 8 ratio. In the experiment with VEGF(8-109) [2], the koff was determined as 1.1e-05 s⁻¹ and the kon came to 31100 M⁻¹ s⁻¹. In addition, the dissociation constant (Kd) in the experiment with VEGF(8-109) [3] was 0.36 nM. Moreover, the “inhibition of VEGF-induced growth of HuVECs (alamar blue assay)” value in experiment [4] was roughly 100 fold. Also, in experiment [5], the “IC50 (read off the curve); VEGF-induced HuVEC growth, alamar blue” value was roughly 3 ng/mL.

B10: Y0241-6 Fab (Fab, V domains shown)
VH: EVQLVESGGGLVQPGGSLRLSCAASGYDYTNYGINWVRQAPGKGLEWVGWINTYTGEPTYAADFKRRFTFSLDTSKSTAYLQMNSLRAEDTAVYYCAKYPHYYGSSHWYFDVWGQGTL
VL: DIQLTQSPSSLSASVGDRVTITCRANEQLSNYLNWYQQKPGKAPKVLIYFTSSLHSGVPSRFSGSGSGTDFTLTISSLQPEDFATYYCQQYSTVPWTFGQGTKVEIKR
notes: Clone from library YC-86, made on the Y0192 template; The text names point mutations only at T28 and F29; The printed stretch ends in GIN, so residue 34 may also differ from the parent; this change is not applied here
As to B10, the “Kd(wt)/Kd(mut)” value in the experiment with VEGF(8-109) [1] stood at 1.1 ratio. Moreover, in the experiment with VEGF(8-109) [2], the koff was determined as 0.000129 s⁻¹ and the on-rate (kon) is 47000 M⁻¹ s⁻¹. Further, in the experiment with VEGF(8-109) [3], the dissociation constant (Kd) is 2.7 nM.

B11: Y0241-7 Fab (Fab, V domains shown)
VH: EVQLVESGGGLVQPGGSLRLSCAASGYDWTNYGINWVRQAPGKGLEWVGWINTYTGEPTYAADFKRRFTFSLDTSKSTAYLQMNSLRAEDTAVYYCAKYPHYYGSSHWYFDVWGQGTL
VL: DIQLTQSPSSLSASVGDRVTITCRANEQLSNYLNWYQQKPGKAPKVLIYFTSSLHSGVPSRFSGSGSGTDFTLTISSLQPEDFATYYCQQYSTVPWTFGQGTKVEIKR
notes: as for B10
In the case of B11, the “Kd(wt)/Kd(mut)” value with VEGF(8-109) [1] came to 1 ratio. In addition, in the experiment with VEGF(8-109) [2], the koff was determined as 0.000128 s⁻¹ and the kon came to 46000 M⁻¹ s⁻¹. The Kd in the experiment with VEGF(8-109) [3] was 3 nM.
